Test results as given in US20220305136A1, “ANTI-CTLA4 CONJUGATES” (Ascendis Pharma Oncology Division A/S, priority 2019, published 2022).

Assay: Plasma pharmacokinetics of HHC^MET in Wistar rats
Format: in vivo
Settings: n=3
Procedure: This study was performed in order to investigate the plasma pharmacokinetics of HHC^MET in Wistar rats following subcutaneous and intramuscular administration of transient HHC^MET-linker hydrogel prodrug 32 or following subcutaneous or intravenous administration of free HHC^MET. Animals (n=3 per group) received either a single SC injection in the neck region or a single IM injection in the thigh musculature of a formulation of 32 (10 mg/kg HHC^MET equivalents) or a single SC injection in the neck region or IV injection in the tail vein of an HHC^MET formulation (10 mg/kg HHCMet). At selected time points, 200 μL blood were collected in L^1-Heparin tubes and processed to plasma by centrifugation at 3,000 g for 10 minutes at 4° C.
HHC^MET concentrations in rat plasma were determined with an in-house developed sandwich ELISA setup. For capturing HHC^MET, a human CTLA-4 (AA Ala37-Ser160)—Fc Tag fusion protein (Supplier AcroBiosystem, Newark, Del.; USA, catalog no. CT4-H5255) was coated to the ELISA plate wells and read-out was performed via a rabbit anti-camelid VHH antibody conjugated with horseradish peroxidase (supplier Genscript, Piscataway, N.J., USA, catalog no. A01861-200).
Calibration standards of HHC^MET in blank plasma were prepared as follows: thawed L^1-Heparin Wistar rat plasma was homogenized. The free HHC^MET formulation was spiked into blank plasma at concentrations between 96.0 ng/mL and 3.00 ng/mL with additional higher and lower anchor points. These solutions were used for the generation of a calibration curve. Calibration curves were analyzed via a 4-parameter logarithmic fit and 1/Y weighted. Calibration curves were confirmed via separately prepared quality control standards at 10, 40 and 80 ng/mL.

B1: HHC^MET: custom made protein of SEQ ID NO:2, expressed from E. coli; captured by human CTLA-4 and detected with anti-camelid VHH antibody in ELISA (protein)
chain: EVQLVESGGGLVQAGGSLRLSCAASGGTFSFYGMGWFRQAPGKEQEFVADIRTSAGRTYYADSVKGRFTISRDNAKNTVYLQMNSLKPEDTAVYYCAAEMSGISGWDYWGQGTQVTVSSGGGGSGGGSEVQLVESGGGLVQAGGSLRLSCAASGGTFSFYGMGWFRQAPGKEQEFVADIRTSAGRTYYADSVKGRFTISRDNAKNTVYLQMNSLKPEDTAVYYCAAEMSGISGWDYWGQGTQVTVSS
modifications: nanobody
notes: captured by human CTLA-4 and detected with anti-camelid VHH antibody in ELISA
0.25 h, 10 mg/kg HHC^MET (equivalents), subcutaneous
  mean HHC^MET concentration: 2540 ng/mL
0.25 h, 10 mg/kg intravenous
  mean HHC^MET concentration: 17400 ng/mL
1 h, 10 mg/kg HHC^MET (equivalents), subcutaneous
  mean HHC^MET concentration: 5090 ng/mL
1 h, 10 mg/kg intravenous
  mean HHC^MET concentration: 3530 ng/mL
4 h, 10 mg/kg HHC^MET (equivalents), subcutaneous
  mean HHC^MET concentration: 2280 ng/mL
4 h, 10 mg/kg intravenous
  mean HHC^MET concentration: 1720 ng/mL
24 h, 10 mg/kg HHC^MET (equivalents), subcutaneous, LLOQ 3.00 ng/mL
  mean HHC^MET concentration: 2.60 ng/mL
24 h, 10 mg/kg intravenous
  mean HHC^MET concentration: 8.27 ng/mL
32 h, 10 mg/kg HHC^MET (equivalents), subcutaneous, LLOQ 3.00 ng/mL
  mean HHC^MET concentration: <LLOQ
32 h, 10 mg/kg intravenous, LLOQ 3.00 ng/mL
  mean HHC^MET concentration: <LLOQ
48 h, 10 mg/kg HHC^MET (equivalents), subcutaneous, LLOQ 3.00 ng/mL
  mean HHC^MET concentration: <LLOQ
48 h, 10 mg/kg intravenous, LLOQ 3.00 ng/mL
  mean HHC^MET concentration: <LLOQ
72 h, 10 mg/kg HHC^MET (equivalents), subcutaneous, LLOQ 3.00 ng/mL
  mean HHC^MET concentration: 2.07 ng/mL
72 h, 10 mg/kg intravenous, LLOQ 3.00 ng/mL
  mean HHC^MET concentration: 1.15 ng/mL
96 h, 10 mg/kg HHC^MET (equivalents), subcutaneous, LLOQ 3.00 ng/mL
  mean HHC^MET concentration: <LLOQ
96 h, 10 mg/kg intravenous, LLOQ 3.00 ng/mL
  mean HHC^MET concentration: <LLOQ
168 h, 10 mg/kg HHC^MET (equivalents), subcutaneous, LLOQ 3.00 ng/mL
  mean HHC^MET concentration: <LLOQ
168 h, 10 mg/kg intravenous, LLOQ 3.00 ng/mL
  mean HHC^MET concentration: <LLOQ
